Assay results as given in PMC3897223 (Biochemistry, 2013).
Where no end group is shown, it is not given here.

Target: T1, AtsB, anaerobic sulfatase maturating enzyme from Klebsiella pneumoniae, wild type, reconstituted (Klebsiella pneumoniae, UniProt Q9X758 1-395)
T1 sequence (looked up): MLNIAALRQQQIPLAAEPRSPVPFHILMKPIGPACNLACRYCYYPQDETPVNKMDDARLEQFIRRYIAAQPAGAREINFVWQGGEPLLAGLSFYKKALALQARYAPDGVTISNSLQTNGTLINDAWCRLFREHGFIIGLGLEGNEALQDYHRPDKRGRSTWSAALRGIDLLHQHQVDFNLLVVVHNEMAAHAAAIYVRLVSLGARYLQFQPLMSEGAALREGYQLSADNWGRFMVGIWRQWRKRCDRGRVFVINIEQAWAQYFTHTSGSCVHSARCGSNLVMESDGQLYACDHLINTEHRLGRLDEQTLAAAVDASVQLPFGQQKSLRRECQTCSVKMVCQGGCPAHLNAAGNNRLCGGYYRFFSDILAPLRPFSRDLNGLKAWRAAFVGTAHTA
Experiment: SEC

Binder: Ac-YYTSPMSAPARSMLLTGN [Kp18Ser peptide substrate]
- binding result: binds
